The record followed here is the Human Domainome abundance scans (Beltran et al. 2025).

B1: Max-interacting protein 1, residues 70 to 120; numbered along this chain, P50539 (parent)
chain: STHNELEKNRRAHLRLCLERLKVLIPLGPDCTRHTTLGLLNKAKAHIKKLE

± gives the uncertainty stated by the source.

This data set covers variants of B1. Kind of data set: abundance fitness (aPCA) (normalised: wild type 0, dead -1); higher = more abundant; growth selection in yeast, the domain comes from the species named. To be noted: Homo sapiens.
As for STHNELEKNRRAHLRLCAERLKVLIPLGPDCTRHTTLGLLNKAKAHIKKLE [L18A], the abundance fitness was -0.275 ± 0.089.

As for STHNELEKNRRAHLRLCCERLKVLIPLGPDCTRHTTLGLLNKAKAHIKKLE [L18C], the abundance fitness was -0.61 ± 0.13.

For STHNELEKNRRAHLYLCLERLKVLIPLGPDCTRHTTLGLLNKAKAHIKKLE [R15Y], the abundance fitness is -0.941 ± 0.19.

As to STHNELEKNRRAHLFLCLERLKVLIPLGPDCTRHTTLGLLNKAKAHIKKLE [R15F], the abundance fitness was -0.269 ± 0.12.

For STHNELEKNRRAHLVLCLERLKVLIPLGPDCTRHTTLGLLNKAKAHIKKLE [R15V], the abundance fitness was -0.678 ± 0.11.

With STHNELEKNRRAHLHLCLERLKVLIPLGPDCTRHTTLGLLNKAKAHIKKLE [R15H], the abundance fitness was -0.462 ± 0.23.

Regarding STHNELEKNRRAHLQLCLERLKVLIPLGPDCTRHTTLGLLNKAKAHIKKLE [R15Q], the abundance fitness is -0.369 ± 0.13.

As for STHNELEKNRRAHLKLCLERLKVLIPLGPDCTRHTTLGLLNKAKAHIKKLE [R15K], the abundance fitness came to 0.143 ± 0.12.

As for STHNELEKNRRAHLLLCLERLKVLIPLGPDCTRHTTLGLLNKAKAHIKKLE [R15L], the abundance fitness is -0.432 ± 0.1.

STHNELEKNRRAHLNLCLERLKVLIPLGPDCTRHTTLGLLNKAKAHIKKLE [R15N]: the abundance fitness was -0.777 ± 0.17.

In the case of STHNELEKNRRAHLMLCLERLKVLIPLGPDCTRHTTLGLLNKAKAHIKKLE [R15M], the abundance fitness was -0.462 ± 0.17.

Consider STHNELEKNRRAHLALCLERLKVLIPLGPDCTRHTTLGLLNKAKAHIKKLE [R15A], for which the abundance fitness is -0.211 ± 0.11.

Turning to STHNELEKNRRAHLDLCLERLKVLIPLGPDCTRHTTLGLLNKAKAHIKKLE [R15D], the abundance fitness is -0.749 ± 0.16.

In the case of STHNELEKNRRAHLCLCLERLKVLIPLGPDCTRHTTLGLLNKAKAHIKKLE [R15C], the abundance fitness is -0.801 ± 0.23.

On to STHNELEKNRRAHLSLCLERLKVLIPLGPDCTRHTTLGLLNKAKAHIKKLE [R15S], for which the abundance fitness was -0.231 ± 0.11.

Turning to STHNELEKNRRAHLPLCLERLKVLIPLGPDCTRHTTLGLLNKAKAHIKKLE [R15P], the abundance fitness was -0.21 ± 0.13.

As for STHNELEKNRRAHLELCLERLKVLIPLGPDCTRHTTLGLLNKAKAHIKKLE [R15E], the abundance fitness was -0.476 ± 0.12.

For STHNELEKNRRAHLGLCLERLKVLIPLGPDCTRHTTLGLLNKAKAHIKKLE [R15G], the abundance fitness is -0.383 ± 0.091.

For the variant STHNELEKNRRAHLTLCLERLKVLIPLGPDCTRHTTLGLLNKAKAHIKKLE [R15T], the abundance fitness is -0.407 ± 0.13.

As to STHNELEKNRRAHLWLCLERLKVLIPLGPDCTRHTTLGLLNKAKAHIKKLE [R15W], the abundance fitness was -0.27 ± 0.13.

With STHNELEKNRRKHLRLCLERLKVLIPLGPDCTRHTTLGLLNKAKAHIKKLE [A12K], the abundance fitness is -0.048 ± 0.12.

Take STHNELEKNRRPHLRLCLERLKVLIPLGPDCTRHTTLGLLNKAKAHIKKLE [A12P]: the abundance fitness was -0.102 ± 0.12.

Turning to STHNELEKNRRGHLRLCLERLKVLIPLGPDCTRHTTLGLLNKAKAHIKKLE [A12G], the abundance fitness was -0.063 ± 0.08.

In the case of STHNELEKNRRHHLRLCLERLKVLIPLGPDCTRHTTLGLLNKAKAHIKKLE [A12H], the abundance fitness is -0.666 ± 0.17.

On to STHNELEKNRRRHLRLCLERLKVLIPLGPDCTRHTTLGLLNKAKAHIKKLE [A12R], for which the abundance fitness is -0.327 ± 0.086.

STHNELEKNRRVHLRLCLERLKVLIPLGPDCTRHTTLGLLNKAKAHIKKLE [A12V]: the abundance fitness was -0.438 ± 0.087.

For STHNELEKNRRYHLRLCLERLKVLIPLGPDCTRHTTLGLLNKAKAHIKKLE [A12Y], the abundance fitness was -0.932 ± 0.23.

With STHNELEKNRRLHLRLCLERLKVLIPLGPDCTRHTTLGLLNKAKAHIKKLE [A12L], the abundance fitness was -0.651 ± 0.1.

As to STHNELEKNRRQHLRLCLERLKVLIPLGPDCTRHTTLGLLNKAKAHIKKLE [A12Q], the abundance fitness is -0.305 ± 0.12.

In the case of STHNELEKNRRFHLRLCLERLKVLIPLGPDCTRHTTLGLLNKAKAHIKKLE [A12F], the abundance fitness is -0.826 ± 0.19.

In the case of STHNELEKNRRNHLRLCLERLKVLIPLGPDCTRHTTLGLLNKAKAHIKKLE [A12N], the abundance fitness is -0.185 ± 0.15.

STHNELEKNRRIHLRLCLERLKVLIPLGPDCTRHTTLGLLNKAKAHIKKLE [A12I]: the abundance fitness is -0.847 ± 0.2.

For STHNELEKNRRSHLRLCLERLKVLIPLGPDCTRHTTLGLLNKAKAHIKKLE [A12S], the abundance fitness was 0.018 ± 0.094.

Regarding STHNELEKNRRTHLRLCLERLKVLIPLGPDCTRHTTLGLLNKAKAHIKKLE [A12T], the abundance fitness was determined as 0.124 ± 0.12.

In the case of STHNELEKNRRWHLRLCLERLKVLIPLGPDCTRHTTLGLLNKAKAHIKKLE [A12W], the abundance fitness was -0.193 ± 0.1.

On to STHNELEKNRRAHCRLCLERLKVLIPLGPDCTRHTTLGLLNKAKAHIKKLE [L14C], for which the abundance fitness was -0.315 ± 0.13.

As to STHNELEKNRRAHKRLCLERLKVLIPLGPDCTRHTTLGLLNKAKAHIKKLE [L14K], the abundance fitness was -0.625 ± 0.16.

In the case of STHNELEKNRRAHGRLCLERLKVLIPLGPDCTRHTTLGLLNKAKAHIKKLE [L14G], the abundance fitness is -0.265 ± 0.083.

For the variant STHNELEKNRRAHERLCLERLKVLIPLGPDCTRHTTLGLLNKAKAHIKKLE [L14E], the abundance fitness was -0.645 ± 0.16.

Consider STHNELEKNRRAHARLCLERLKVLIPLGPDCTRHTTLGLLNKAKAHIKKLE [L14A], for which the abundance fitness is -0.197 ± 0.096.

With STHNELEKNRRAHHRLCLERLKVLIPLGPDCTRHTTLGLLNKAKAHIKKLE [L14H], the abundance fitness is -0.143 ± 0.24.

STHNELEKNRRAHMRLCLERLKVLIPLGPDCTRHTTLGLLNKAKAHIKKLE [L14M]: the abundance fitness was -0.208 ± 0.11.

Consider STHNELEKNRRAHDRLCLERLKVLIPLGPDCTRHTTLGLLNKAKAHIKKLE [L14D], for which the abundance fitness is -0.274 ± 0.18.

As for STHNELEKNRRAHFRLCLERLKVLIPLGPDCTRHTTLGLLNKAKAHIKKLE [L14F], the abundance fitness was determined as 0.096 ± 0.15.

For the variant STHNELEKNRRAHNRLCLERLKVLIPLGPDCTRHTTLGLLNKAKAHIKKLE [L14N], the abundance fitness is -0.735 ± 0.24.

Turning to STHNELEKNRRAHYRLCLERLKVLIPLGPDCTRHTTLGLLNKAKAHIKKLE [L14Y], the abundance fitness turned out to be 0.111 ± 0.15.

With STHNELEKNRRAHSRLCLERLKVLIPLGPDCTRHTTLGLLNKAKAHIKKLE [L14S], the abundance fitness is -0.299 ± 0.089.

STHNELEKNRRAHPRLCLERLKVLIPLGPDCTRHTTLGLLNKAKAHIKKLE [L14P]: the abundance fitness is -0.064 ± 0.12.

Turning to STHNELEKNRRAHWRLCLERLKVLIPLGPDCTRHTTLGLLNKAKAHIKKLE [L14W], the abundance fitness was found to be 0.187 ± 0.091.

For STHNELEKNRRAHVRLCLERLKVLIPLGPDCTRHTTLGLLNKAKAHIKKLE [L14V], the abundance fitness is -0.356 ± 0.092.

For the variant STHNELEKNRRAHTRLCLERLKVLIPLGPDCTRHTTLGLLNKAKAHIKKLE [L14T], the abundance fitness was -0.368 ± 0.14.
